B1: fluorescein-labelled NIYYKV peptide (peptide)
peptide: NIYYKV
modifications: also: 5-(and-6-)carboxyfluorescein label, site not given here
notes: 25 nM probe in fluorescence polarization; also called unphosphorylated peptide probe
B2: GST-syntenin fusion protein (full length: residues 1-299) (other, mouse, UniProt O08992 1-299, looked up)
chain: MSLYPSLEDLKVDKVIQAQTAYSANPASQAFVLVDASAALPPDGNLYPKLYPELSQYMGLSLNEAEICESMPMVSGAPAQGQLVARPSSVNYMVAPVTGNDAGIRRAEIKQGIREVILCKDQDGKIGLRLKSIDNGIFVQLVQANSPASLVGLRFGDQVLQINGENCAGWSSDKAHKVLKQAFGEKITMTIRDRPFERTVTMHKDSSGHVGFIFKSGKITSIVKDSSAARNGLLTDHHICEINGQNVIGLKDAQIADILSTAGTVVTITIMPTFIFEHIIKRMAPSIMKSLMDHTIPEV
notes: range 1-299; also called full-length syntenin; GST fusion of full-length syntenin; not shown: glutathione S-transferase (GST) from vector pGEX4T2
B3: syntenin-FLAG (other, mouse, UniProt O08992 1-299, looked up, not shown: small tags and cut ends)
chain: B2 chain
notes: range 1-299; Co-expressed with ephrin B1 in Cos-1 cells

Experiment [1] has as its target B2. As to the kind of experiment: fluorescence polarization, 25 nM fluorescein-labelled peptide, GST fusion titrated, 22 C. The method, then: (§1) FIGS. 5A and 5B. Fluorescence polarization analysis of GST-FAP-1 PDZ3, GST-FAP-1 PDZ5 and GST-syntenin binding to Fluorescein-labelled peptides corresponding to the C-terminus of ephrin B1. FIG. 5 A, Solutions containing the indicated final concentration of GST-FAP-1 PDZ3 ( ) or GST-FAP-1 PDZ5 ( ) fusion protein in mixtures containing 25 nM fluorescein-labelled NIYYKV peptide probe, 20 mM phosphate pH 7.0, 100 mM NaCl, and 2 mM dithiothreitol (DTT) were monitored for fluorescence polarization at 22° C. The GST-FAP-1 PDZ5 fusion protein was also measured for binding to the phosphorylated peptides, NIpYYKV ( ), NiYpYKV ( ) and NIpYpYKV ( ). […] FIG. 5B, A Binding of a GST fusion of full-length syntenin to the NIYYKV ( ), NIpYYKV ( ), and NIpYpYKV ( ) peptides as measured by fluorescence polarization.
(§2) Binding constant determination and peptide competition studies were carried out using fluorescence polarization on a Beacon 2000 Fluorescence Polarization System (Pan Vera, Wis.) equipped with a 100-μl sample chamber. Fluorescein-labeled probes were prepared through reaction of B ephrin C-terminal peptides with 5-(and-6-)-carboxyfluorescein, succinimidyl ester (Molecular Probes, Oreg.) and purified by reverse-phase HPLC. The authenticity of the fluorescein-labelled peptides were confirmed by mass spectroscopy. In the binding studies, the fluorescein-labelled peptide probe was dissolved in 20 mM phosphate pH 7.0, 100 mM NaCl, and 2 mM DTT to a concentration of 25 nM and a known quantity of GST- fusion protein added. The reaction mixtures were allowed to stand for 10 min at room temperature prior to each measurement. All fluorescence polarization measurements were conducted at 22° C.
(§3) Fluorescence polarization experiments measuring GST-syntenin fusion protein binding to fluorescein-labeled NIYYKV (SEQ. ID. NO. 10) and NIpYYKV (SEQ. ID. NO. 8) peptides yielded nearly identical binding curves (FIG. 5B).

Experiment [2] addresses T1, ephrin B1 Val deletion (UniProt P98172 28-346, limits assumed).
T1 construct: whole, on cells; Tested from lysates of transfected Cos-1 cells; also called ephrin B1 Val deletion mutant; ephrin B1 lacking the C-terminal Val
T1 sequence (looked up): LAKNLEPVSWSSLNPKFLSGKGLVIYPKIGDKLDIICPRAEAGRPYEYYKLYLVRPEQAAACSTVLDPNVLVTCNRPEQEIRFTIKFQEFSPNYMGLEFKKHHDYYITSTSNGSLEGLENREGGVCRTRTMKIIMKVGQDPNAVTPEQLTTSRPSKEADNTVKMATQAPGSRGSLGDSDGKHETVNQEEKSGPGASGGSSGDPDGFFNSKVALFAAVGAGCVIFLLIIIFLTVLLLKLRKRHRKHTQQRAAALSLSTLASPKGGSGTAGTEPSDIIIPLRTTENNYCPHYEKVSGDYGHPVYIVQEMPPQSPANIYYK
As to the kind of experiment: GST mix with lysates of transfected Cos-1 cells, anti-ephrin B1 immunoblot. The method, then: FIGS. 3A-C. FAP-1 PDZ5 and syntenin bind specifically to ephrin B1 in GST-mixes. Cos-1 cells were transiently transfected with either wild-type ephrin B1 (W. T.) or the ephrin B1 Val deletion (Val Δ) or were untransfected. Cell lysates were incubated with the GST fusion proteins as indicated and analyzed by immunoblotting with anti-ephrin B1 antibody. Immunoprecipitated ephrin B1 or ephrin B1 Val Δ were included as a positive control. FIG. 3A and FIG. 3B, GST-mixes with fusion proteins of FAP-1. C and D, GST-mixes with fusion proteins of syntenin.
(§4) Cos-1 cells were maintained in DMEM supplemented with 10% fetal bovine serum (FBS). Transient transfections were performed using Lipofectin reagent and Opti-MEM medium (Life Technologies Inc.) as outlined by the manufacturer. To reduce phosphorylation of ephrin B1 by binding to endogenously expressed EphB receptors or by stimulation with serum growth factors, transfected cells were transferred from 10 cm to 15 cm plates 24 h after transfection and serum starved in DMEM 0.5% FBS 12 h prior to cell lysis. Transfected cells were rinsed once in PBSA and lysed in PLC lysis buffer (5) with 10 μg/ml aprotonin, 10 μg/ml leupeptin, 1 mM sodium vanadate and 1 mM phenylmethylsulfonyl fluoride added. Immunoprecipitations were performed for 1 h at 4° C. using 1 μg anti-ephrin B1 antibody or 1 μg anti-IL-3 receptor a antibody with protein A-sepharose. […]

The target of experiment [3] is fluorescein-labelled NIpYYKV peptide. As to the kind of experiment: fluorescence polarization, 25 nM fluorescein-labelled peptide, GST fusion titrated, 22 C. The method, then:
as §1, §2, §3

Experiment [4] concerns the target fluorescein-labelled NIpYpYKV peptide. Described as above. How it is done:
as §1, §2, §3

The target in experiment [5] is T1, ephrin B1 Val deletion. Description: co-immunoprecipitation from co-transfected Cos-1 cells, anti-FLAG blot. How it is done:
(§5) FIG. 6. Co-immunoprecipitation of syntenin-FLAG with ephrin B1. Cos-1 cells were co-transfected with either ephrin B1 and syntenin-FLAG or with the ephrin B1 Val deletion and syntenin-FLAG as indicated. Cell lysates were immunoprecipitated with antibodies against ephrin B1 or IL-3 receptor a or were treated with protein A sepharose only. Immunocomplexes were subjected to SDS-PAGE (10%) and blotted with anti-FLAG antibodies.
as §4

The target in another experiment is T2, protein A sepharose (UniProt P38507 37-477).
T2 construct: Bead-only control in the co-immunoprecipitation; also called protein A sepharose alone
As to the kind of experiment: precipitation from Cos-1 cells co-transfected with ephrin B1 and syntenin-FLAG, anti-FLAG blot. The method, then:
as §5, §4

No end group written: not given here.

Turning to B1, binding in experiment [1] was put at a Kd of 17.7 µM.
As to B2, in the experiment with ephrin B1 Val deletion [2], the binding result is recorded as “no binding”. Besides, the Kd came to 15.4 µM in experiment [3] and 151 µM in experiment [4].
Turning to B3, the binding result in the experiment with ephrin B1 Val deletion [5] and in the experiment with protein A sepharose was “no binding” each time.

The values above are taken from US20020147306A1 (published 2002).
